According to patent US20230340151A1 (Pfizer, published 2023):

Legend:
[1] = biological target: Human GUCY2c on tumor cells (T84, HT55) (human, UniProt P25092 24-1073); assay: cell-based or functional assay
[2] = biological target: T1, Purified human GUCY2c ECD (recombinant, construct not stated) (human, UniProt P25092 24-430); assay: direct ELISA, coated GUCY2c ECD
T1 construct: also called recombinant human GUCY2c; recombinant GUCY2c protein

Human CD3 epsilon-delta = biological target: T2, Human CD3 epsilon-delta (human); assay: direct ELISA, coated CD3 epsilon-delta
T2 construct: Single-chain epsilon-linker-delta with His6; also called huCD3
T2 chain: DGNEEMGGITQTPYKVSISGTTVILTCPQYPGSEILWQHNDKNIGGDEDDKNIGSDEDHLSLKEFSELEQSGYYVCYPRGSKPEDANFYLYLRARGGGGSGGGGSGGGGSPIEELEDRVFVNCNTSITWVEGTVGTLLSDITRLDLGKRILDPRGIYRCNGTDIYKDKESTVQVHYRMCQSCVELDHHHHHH
Description: Proteins were screened for binding to recombinant human, cyno and mouse proteins by ELISA. Purified human, cynomolgus, murine GUCY2c ECD or human CD3 epsilon-delta proteins were coated on Nunc-Maxisorb 384-well ELISA plates at 1 μg/ml in 20 μl in PBS-CMF (calcium and magnesium free) at 4 C. Plates were washed 3x with PBS+0.05% TWEEN20 and blocked with PBS+3% milk for 1 hr, shaking at RT. Blocking solution was removed and samples serially diluted in block were added and incubated for 1 hr shaking at RT. Plates were washed 3x as before and a secondary antibody was added (goat anti-hu IgG Fc-HRP—Southern Biotech L2047-05, 1:5000;
goat anti-mouse IgG Fc-HRP—Thermo Scientific, diluted 1:4,000; or mouse anti-penta-HIS-HRP, Qiagen, 1:1000), followed by shaking for 1 hr at RT. Plates were washed as before and signal was developed using TMB, the reaction stopped with H2SO4 and the absorbance read at 450 nm on an Envision plate reader (Perkin Elmer). An alternative detection method was also periodically employed in place of TMB/H2SO4. […] Time-resolved fluorescence was then measured at 320 and 615 nm using an EnVision® plate reader (EnVision® Multilabel Plate Reader, Perkin Elmer) following the manufacturer's methods.

Human GUCY2C ECD-muIgG2a = biological target: T3, Human GUCY2C ECD-muIgG2a (human); assay: sandwich ELISA: CD3 epsilon-delta coated, GUCY2c ECD-mIgG2a Fc in solution
T3 construct: also called human GUCY2c ECD-mouse IgG2a Fc fusion protein; huGUCY2c-mIgG2a

Human GUCY2C ECD Cleaved = biological target: T4, Human GUCY2C ECD Cleaved (human, UniProt P25092 24-430); assay: SPR, human IgG1 against human GUCY2c ECD
T4 construct: also called human GUCY2c extracellular domain protein (ECD)
T4 sequence (P25092 other isoform, or with tags, fused parts or gaps): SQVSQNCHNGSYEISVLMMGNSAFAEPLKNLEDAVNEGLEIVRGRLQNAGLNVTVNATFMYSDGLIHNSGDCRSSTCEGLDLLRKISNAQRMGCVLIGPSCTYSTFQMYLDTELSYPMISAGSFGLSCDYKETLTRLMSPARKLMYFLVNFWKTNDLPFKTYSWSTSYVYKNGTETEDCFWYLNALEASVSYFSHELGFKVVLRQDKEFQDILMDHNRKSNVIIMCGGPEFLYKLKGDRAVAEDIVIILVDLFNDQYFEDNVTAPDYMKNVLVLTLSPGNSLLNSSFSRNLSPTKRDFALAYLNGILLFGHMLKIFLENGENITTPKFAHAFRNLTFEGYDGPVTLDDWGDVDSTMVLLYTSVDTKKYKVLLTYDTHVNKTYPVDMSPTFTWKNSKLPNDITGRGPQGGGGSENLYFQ

T3 sequence (chain, as listed by the source limits assumed): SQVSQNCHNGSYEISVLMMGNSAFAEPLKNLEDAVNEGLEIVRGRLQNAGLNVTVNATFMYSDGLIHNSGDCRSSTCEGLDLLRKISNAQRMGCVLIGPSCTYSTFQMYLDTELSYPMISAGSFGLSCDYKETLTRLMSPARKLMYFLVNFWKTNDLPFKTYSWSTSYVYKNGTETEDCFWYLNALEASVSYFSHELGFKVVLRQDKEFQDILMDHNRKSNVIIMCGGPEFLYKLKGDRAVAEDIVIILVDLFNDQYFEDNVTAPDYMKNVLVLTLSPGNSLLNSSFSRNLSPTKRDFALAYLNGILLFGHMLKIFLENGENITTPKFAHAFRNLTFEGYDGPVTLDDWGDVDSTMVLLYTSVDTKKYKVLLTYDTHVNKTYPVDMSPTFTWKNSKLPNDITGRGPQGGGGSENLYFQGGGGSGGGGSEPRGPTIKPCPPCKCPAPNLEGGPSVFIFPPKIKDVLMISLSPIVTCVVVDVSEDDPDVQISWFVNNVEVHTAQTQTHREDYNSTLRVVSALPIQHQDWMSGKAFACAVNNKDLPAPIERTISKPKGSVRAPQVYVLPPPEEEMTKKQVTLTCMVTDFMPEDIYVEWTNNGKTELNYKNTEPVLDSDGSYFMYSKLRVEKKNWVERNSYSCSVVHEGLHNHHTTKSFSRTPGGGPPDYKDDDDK
Human GUCY2c on tumor cells (T84, HT55), sequence (P25092 24-1073 limits assumed): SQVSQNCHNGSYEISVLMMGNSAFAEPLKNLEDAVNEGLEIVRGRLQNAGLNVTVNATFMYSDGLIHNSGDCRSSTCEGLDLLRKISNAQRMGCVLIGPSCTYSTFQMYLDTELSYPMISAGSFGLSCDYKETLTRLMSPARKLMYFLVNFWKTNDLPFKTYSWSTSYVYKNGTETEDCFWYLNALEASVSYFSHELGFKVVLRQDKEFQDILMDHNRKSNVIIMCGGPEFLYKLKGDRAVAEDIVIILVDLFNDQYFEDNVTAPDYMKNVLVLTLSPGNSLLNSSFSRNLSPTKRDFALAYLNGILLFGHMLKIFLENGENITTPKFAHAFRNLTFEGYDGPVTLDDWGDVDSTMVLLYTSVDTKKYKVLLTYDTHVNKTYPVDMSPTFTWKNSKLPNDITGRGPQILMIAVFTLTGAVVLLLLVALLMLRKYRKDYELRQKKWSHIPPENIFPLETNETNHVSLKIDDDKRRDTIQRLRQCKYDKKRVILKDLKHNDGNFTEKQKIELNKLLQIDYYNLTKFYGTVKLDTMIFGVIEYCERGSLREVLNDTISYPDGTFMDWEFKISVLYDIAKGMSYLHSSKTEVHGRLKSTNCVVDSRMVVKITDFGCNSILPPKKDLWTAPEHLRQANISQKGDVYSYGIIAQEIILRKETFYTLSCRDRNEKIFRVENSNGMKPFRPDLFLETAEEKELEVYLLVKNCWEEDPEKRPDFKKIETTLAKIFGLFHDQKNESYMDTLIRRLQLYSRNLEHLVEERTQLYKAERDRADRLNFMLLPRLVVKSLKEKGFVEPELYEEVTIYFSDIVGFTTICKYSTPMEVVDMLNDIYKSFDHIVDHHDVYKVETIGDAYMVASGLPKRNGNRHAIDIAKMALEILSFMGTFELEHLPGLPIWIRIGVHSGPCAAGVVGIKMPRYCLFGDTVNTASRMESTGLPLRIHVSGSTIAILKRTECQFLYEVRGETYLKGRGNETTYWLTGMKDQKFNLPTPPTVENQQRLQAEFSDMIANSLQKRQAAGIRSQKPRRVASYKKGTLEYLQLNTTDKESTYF
T1 sequence (P25092 24-430 limits assumed): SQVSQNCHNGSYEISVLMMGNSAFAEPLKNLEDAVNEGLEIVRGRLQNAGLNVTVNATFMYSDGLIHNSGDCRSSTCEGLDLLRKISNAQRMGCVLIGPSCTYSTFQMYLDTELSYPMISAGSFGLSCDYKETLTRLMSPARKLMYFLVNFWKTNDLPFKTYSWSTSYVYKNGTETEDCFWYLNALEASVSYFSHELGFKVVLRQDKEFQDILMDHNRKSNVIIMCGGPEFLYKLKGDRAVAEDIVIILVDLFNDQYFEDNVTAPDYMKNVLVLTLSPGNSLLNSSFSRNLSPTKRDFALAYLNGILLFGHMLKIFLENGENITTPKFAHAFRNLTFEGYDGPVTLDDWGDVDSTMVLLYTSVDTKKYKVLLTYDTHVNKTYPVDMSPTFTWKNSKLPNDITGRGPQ

Row | EC50 [2] [nM] | EC50 (Human CD3 epsilon-delta) [nM] | EC50 (Human GUCY2C ECD-muIgG2a) [nM] | Kd (Human GUCY2C ECD Cleaved) [nM] | koff (Human GUCY2C ECD Cleaved) [s⁻¹] | kon (Human GUCY2C ECD Cleaved) [M⁻¹ s⁻¹] | Binder | T84 tumor cell EC50 (T cell cytotoxicity, E:T 10:1) [1] [nM]
1 | 79.8 | 0.355 | 5.04 |  |  |  | GUCY2C-0105 (bispecific antibody, chimeric CD3-GUCY2c diabody-Fc, CD3-0004) chain 1: DIVMTQSPSSLAVSVGEKVTVSCKSSQSLLYSSNQKNYLAWYQQRPGQSPKLLIYWASTRESGVPDRFTGSGSGTDFTLSISSVKAEDLAVYYCQQYYSYPTFGGGTKLEIKGGGSGGGGEVQLVESGGGLVQPGGSLRLSCAASGFTFSDYYMTWVRQAPGKGLEWVAFIRNRARGYTSDHNPSVKGRFTISRDNAKNSLYLQMNSLRAEDTAVYYCARDRPSYYVLDYWGQGTTVTVSSGCPPCPAPEAAGAPSVFLFPPKPKDTLMISRTPEVTCVVVDVSHEDPEVKFNWYVDGVEVHNAKTKPREEQYNSTYRVVSVLTVLHQDWLNGKEYKCKVSNKALPAPIEKTISKAKGQPREPQVCTLPPSREEMTKNQVSLWCLVKGFYPSDIAVEWESNGQPENNYKTTPPVLDSDGSFFLYSKLTVDKSRWQQGNVFSCSVMHEALHNHYTQKSLSLSPG chain 2: DIVMTQSPDSLAVSLGERATINCKSSQSLFNVRSRKNYLAWYQQKPGQPPKLLISWASTRESGVPDRFSGSGSGTDFTLTISSLQAEDVAVYYCKQSYDLFTFGSGTKLEIKGGGSGGGGEVQLQQSGPELVKPGASVKISCKASGYSFTDYIMLWVKQSHGKSLEWIGNSNPYYGSTSYNLKFKGKATLTVDKSSSTAYMHLNSLTSEDSAVYYCARSGYYGSSPYWYFDVWGAGTTVTVSSGCPPCPAPEAAGAPSVFLFPPKPKDTLMISRTPEVTCVVVDVSHEDPEVKFNWYVDGVEVHNAKTKPREEQYNSTYRVVSVLTVLHQDWLNGKEYKCKVSNKALPAPIEKTISKAKGQPREPQVYTLPPCREEMTKNQVSLSCAVKGFYPSDIAVEWESNGQPENNYKTTPPVLDSDGSFFLVSKLTVDKSRWQQGNVFSCSVMHEALHNHYTQKSLSLSPG | 7.51
2 | 23.5 | 1.45 | 9.68 |  |  |  | GUCY2C-0078 (bispecific antibody) chain 1: DIVLTQSPASLAVSLGQRATISCRAGESVDNFDISFMNWFQQKPGQPPKLLIYAASNQGSGVPARFSGSGSGTDFSLNIHPMEEDDTAMYFCQQSKEVPYTFGGGTKLEIKGGGSGGGGEVQLVESGGGLVQPGGSLRLSCAASGFTFSDYYMTWVRQAPGKGLEWVAFIRNRARGYTSDHNPSVKGRFTISRDNAKNSLYLQMNSLRAEDTAVYYCARDRPSYYVLDYWGQGTTVTVSSGCPPCPAPEAAGAPSVFLFPPKPKDTLMISRTPEVTCVVVDVSHEDPEVKFNWYVDGVEVHNAKTKPREEQYNSTYRVVSVLTVLHQDWLNGKEYKCKVSNKALPAPIEKTISKAKGQPREPQVCTLPPSREEMTKNQVSLWCLVKGFYPSDIAVEWESNGQPENNYKTTPPVLDSDGSFFLYSKLTVDKSRWQQGNVFSCSVMHEALHNHYTQKSLSLSPG chain 2: DIVMTQSPDSLAVSLGERATINCKSSQSLFNVRSRKNYLAWYQQKPGQPPKLLISWASTRESGVPDRFSGSGSGTDFTLTISSLQAEDVAVYYCKQSYDLFTFGSGTKLEIKGGGSGGGGEVQLQQSGAELARPGASVKLSCKASGYTFTKYWMQWIKQRPGQGLEWIGAIYPGDGFTTYTQKFKGKATLTADKSSNTAYMQLSSLASEDSAVYYCARRNYGRTYGGDYWGQGTSVTVSSGCPPCPAPEAAGAPSVFLFPPKPKDTLMISRTPEVTCVVVDVSHEDPEVKFNWYVDGVEVHNAKTKPREEQYNSTYRVVSVLTVLHQDWLNGKEYKCKVSNKALPAPIEKTISKAKGQPREPQVYTLPPCREEMTKNQVSLSCAVKGFYPSDIAVEWESNGQPENNYKTTPPVLDSDGSFFLVSKLTVDKSRWQQGNVFSCSVMHEALHNHYTQKSLSLSPG | 7.8
3 |  |  |  | 6.25 | 0.00149 | 239000 | GUCY2C-1705 (antibody, human IgG1, V domains shown, full human IgG1/kappa) VH: EVQLVESGGGLVQPGGSLRLSCAASGFTFSSYWMHWVRQAPGKGLEWIGEIKPSRGFTNVHEKFKDRFTISVDKAKNSAYLQMNSLRAEDTAVYYCTRTITTTEGYWFFDVWGQGTLVTVSS VL: DIQLTQSPSSLSASVGDRVTITCRASESVDYYGSSLMQWYQQKPGKAPKLLIYAASKLASGVPSRFSGSGSGTDFTLTISSLQPEDFATYYCQQTRKAYTFGQGTKLEIK | 
4 |  |  |  | 13.9 | 0.00271 | 195000 | GUCY2C-1640 (antibody, human IgG1, kappa, V domains shown) VH: EVQLVESGGGLVQPGGSLRLSCAASGFTFSSYWMHWVRQAPGKGLEWIGEIKPSNELTNVHEKFKDRFTISVDKAKNSAYLQMNSLRAEDTAVYYCTRTITTTEGYWFFDVWGQGTLVTVSS VL: DIQLTQSPSSLSASVGDRVTITCRASESVDYYGSSLLQWYQQKPGKAPKLLIYAASKLASGVPSRFSGSGSGTDFTLTISSLQPEDFATYYCQQTRKAYTFGQGTKLEIKR | 
5 |  |  |  | 6.71 | 0.00108 | 161000 | GUCY2C-1713 (antibody, human IgG1, V domains shown, full human IgG1/kappa) VH: EVQLVESGGGLVQPGGSLRLSCAASGFTFSHTWMHWVRQAPGKGLEWIGEIKPSRGFTNVHEKFKDRFTISVDKAKNSAYLQMNSLRAEDTAVYYCTRTITTTQGYWFFDVWGQGTLVTVSS VL: DIQLTQSPSSLSASVGDRVTITCRASESVNWYGSSLMQWYQQKPGKAPKLLIYAASKLASGVPSRFSGSGSGTDFTLTISSLQPEDFATYYCQQTRKAYTFGQGTKLEIK | 
6 |  |  |  | 12.4 | 0.00179 | 144000 | GUCY2C-1696 (antibody, human IgG1, V domains shown, full human IgG1/kappa) VH: EVQLVESGGGLVQPGGSLRLSCAASGFTFSTRWMHWVRQAPGKGLEWIGEIKPSNKLTNVHEKFKDRFTISVDKAKNSAYLQMNSLRAEDTAVYYCARTITTTEGYWFLSDWGQGTLVTVSS VL: DIQLTQSPSSLSASVGDRVTITCRASESVDYYGHSLMQWYQQKPGKAPKLLIYAASKLASGVPSRFSGSGSGTDFTLTISSLQPEDFATYYCQQTRKAYTFGQGTKLEIK | 
7 |  |  |  | 9.75 | 0.00193 | 198000 | GUCY2C-1706 (antibody, human IgG1, V domains shown, full human IgG1/kappa) VH: EVQLVESGGGLVQPGGSLRLSCAASGFTFSSTWMHWVRQAPGKGLEWIGEIKPSNELTNVHEKFKDRFTISVDKAKNSAYLQMNSLRAEDTAVYYCTRTITTTEGYWFFDVWGQGTLVTVSS VL: DIQLTQSPSSLSASVGDRVTITCRASESVDYYGSSLMQWYQQKPGKAPKLLIYAASKLASGVPSRFSGSGSGTDFTLTISSLQPEDFATYYCQQTRKAYTFGQGTKLEIK | 
8 |  |  |  | 10.3 | 0.00214 | 210000 | GUCY2C-1703 (antibody, human IgG1, V domains shown, full human IgG1/kappa) VH: EVQLVESGGGLVQPGGSLRLSCAASGFTFSSYWMHWVRQAPGKGLEWIGEIKPSNRWNNVHEKFKDRFTISVDKAKNSAYLQMNSLRAEDTAVYYCTRTITTTEGYWFFDVWGQGTLVTVSS VL: DIQLTQSPSSLSASVGDRVTITCRASESVDYYGSSLMQWYQQKPGKAPKLLIYAASKLASGVPSRFSGSGSGTDFTLTISSLQPEDFATYYCQQTRKAYTFGQGTKLEIK | 
9 |  |  |  | 10.3 | 0.00124 | 121000 | GUCY2C-1714 (antibody, human IgG1, V domains shown, full human IgG1/kappa) VH: EVQLVESGGGLVQPGGSLRLSCAASGFTFSHTWMHWVRQAPGKGLEWIGEIKPSTKYTNVHEKFKDRFTISVDKAKNSAYLQMNSLRAEDTAVYYCARTIFTREGYWFFDVWGQGTLVTVSS VL: DIQLTQSPSSLSASVGDRVTITCRASESVNWYGSSLMQWYQQKPGKAPKLLIYAASKLASGVPSRFSGSGSGTDFTLTISSLQPEDFATYYCQQTRKAYTFGQGTKLEIK | 
10 |  |  |  | 5.94 | 0.00147 | 248000 | GUCY2C-1710 (antibody, human IgG1, V domains shown, full human IgG1/kappa) VH: EVQLVESGGGLVQPGGSLRLSCAASGFTFSSYWMHWVRQAPGKGLEWIGEIKPSRGWTNVHEKFKDRFTISVDKAKNSAYLQMNSLRAEDTAVYYCARTITTTEGYWFFDVWGQGTLVTVSS VL: DIQLTQSPSSLSASVGDRVTITCRASESVDYYRHSLMQWYQQKPGKAPKLLIYAASKLASGVPSRFSGSGSGTDFTLTISSLQPEDFATYYCQQTRKAYTFGQGTKLEIK | 
11 |  |  |  | 9.44 | 0.00132 | 140000 | GUCY2C-1708 (antibody, human IgG1, V domains shown, full human IgG1/kappa) VH: EVQLVESGGGLVQPGGSLRLSCAASGFTFSRPWMHWVRQAPGKGLEWIGEIKPSTGWTNVHEKFKDRFTISVDKAKNSAYLQMNSLRAEDTAVYYCTRTITTTTGYWFFDVWGQGTLVTVSS VL: DIQLTQSPSSLSASVGDRVTITCRASESVDYYKHSLMQWYQQKPGKAPKLLIYAASKLASGVPSRFSGSGSGTDFTLTISSLQPEDFATYYCQQTRKAYTFGQGTKLEIK | 
